The values below come from patent US20200055952A1 (B CELL DESIGN, published 2020).

Test [1] has as its target carcinoembryonic antigen (CEA) on WiDr human colorectal cancer cells (human) (UniProt P06731). In words: cell-based or functional assay.
The target in a further test is T1, CEACAM-6 (NCA or CD66c) (UniProt P40199 35-320, limits assumed).
T1 construct: whole, on cells
T1 sequence (looked up): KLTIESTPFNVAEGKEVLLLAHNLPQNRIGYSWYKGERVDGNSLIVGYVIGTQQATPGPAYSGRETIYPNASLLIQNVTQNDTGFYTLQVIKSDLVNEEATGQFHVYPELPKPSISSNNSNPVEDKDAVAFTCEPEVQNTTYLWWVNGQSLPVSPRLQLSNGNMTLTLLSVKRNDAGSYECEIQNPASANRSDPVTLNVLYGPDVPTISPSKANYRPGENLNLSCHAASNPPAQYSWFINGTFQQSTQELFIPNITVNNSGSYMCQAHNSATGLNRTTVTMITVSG
Kind of test: immunofluorescence on tissues (liver and stomach) and flow cytometry on leukocytes, data not shown. (In general: A flow cytometer gives signals particle by particle.)

“irrelevant polymeric IgA anti-peanut (antibody)” registered a doubly selected cells (Effector Cell (CD89+): WiDr target cells (CEA+)) by flow cytometry, in vivo in SCID-CD89 mice in test [1] of 10.2%.

B1: anti-CEA IgA monoclonal antibody clone 15B3 (human/mouse chimeric IgA1, hybridoma culture supernatant) (antibody, V domains shown)
VH: QIQLVQSGPELKKPGETVKISCKASGYTFTNYGMNWVNQAPGKGLKWMGWINTNTGEPTYAEEFKGRFAFSLETSASTAYLQINNLKNEDTATYFCARLWYLYFDVWGAGTTVTVSS
VL: DIQMTQSPASQSASLGESVTITCLASQTIGTRLAWYQQKPGKSPQLLIYAATRLADGVPSRFSGSGSGTKFSFKISSLQAEDFVSYYCQQLYSTPYTFGGGTKLEIK
notes: From HAMIGA mice: human IgA1 heavy chain constant regions, mouse light chain constant regions, mouse variable regions; The hybridoma supernatant holds monomeric (no J chain) and polymeric (murine J chain) forms; also called mAb 15B3; IgA anti-CEA clone #15B3
In the case of B1, in the test with CEACAM-6 (NCA or CD66c), the binding result is “no binding”.
